Source: paper PMC6491548, “A novel multidomain acyl-CoA carboxylase in Saccharopolyspora erythraea provides malonyl-CoA for de novo fatty acid biosynthesis” (Scientific Reports, 2019)

Columns and labels:
[1] = substrate: CC(=O)SCCNC(=O)CCNC(=O)[C@H](O)C(C)(C)COP(=O)(O)OP(=O)(O)OC[C@H]1O[C@@H](n2cnc3c(N)ncnc32)[C@H](O)[C@@H]1OP(=O)(O)O; assay: purified protein; assay type: biochemical, Saccharopolyspora erythraea; settings: 3 mM ATP, 5 mM MgCl2, 50 mM NaH14CO3, 100 mM Hepes pH 7.5, 30 °C
[2] = substrate: CCC(=O)SCCNC(=O)CCNC(=O)[C@H](O)C(C)(C)COP(=O)(O)OP(=O)(O)OC[C@H]1O[C@@H](n2cnc3c(N)ncnc32)[C@H](O)[C@@H]1OP(=O)(O)O; assay: purified protein; assay type: biochemical, Saccharopolyspora erythraea; settings: 3 mM ATP, 5 mM MgCl2, 50 mM NaH14CO3, 100 mM Hepes pH 7.5, 30 °C
[3] = target: the molecule itself; assay: SEC; Superdex 200 10/300 GL in 50 mM Hepes pH 7.5, 150 mM NaCl, 20% glycerol; calibrated with molecular mass standards; two peaks, dimer (404 kDa) and monomer (186.9 kDa)

B1: SACE_4237 (Saccharopolyspora erythraea NRRL 2338) (protein)
chain: MFSRVAIVNRGEAAMRLVHAVRELAAETGERIETVALHTDVDRTATFVREADLRYDLGPASARPYLDLGVLERALVESGADAAWVGWGFVAEDPAFAELCEKIGVTFIGPSAEAMRRLGDKIGAKLLAEEVGVPVAPWSRGEVSDLDGARRAADEIGYPLMLKATAGGGGRGIRVINSEQELTEAYERTRMEAERAFGNGAVFLERLVTGARHVEVQVIADGQGTAWALGVRDCSVQRRNQKIIEESASPVLTAEQSRELKAAAERLARAVEYRGAGTVEFLYHPGEELFAFLEVNTRLQVEHPITEATTGVDLVKAQLHVASGGRLEGEPPAELGHAVEARLNAEDPDRDFAPSPGRIVRLSLPAGPGIRVDTGVSEGDTIPADFDSMIAKIIAYGSDREQALGRLRRAMAQTTVIVAGGATNKSFVLDLLNRDEVVDGSADTGWIDRERAAGGLRSHQHSAIALAAAAVEAYEDAELAARQQFLSTAHGGRPQVRHETGRPLELKLRDESYRVLVARVGHQRYRIGIDTGSQQHTADVEIERFDSHTGQITVNGQRFRLVTDTHGPVHLVEVDGVTHRVSQDEGGVLRSPAPALVVATPVEIGEEVEAGAPVLVLESMKMETVLRAPFRARLRERMVAAGSQIETGAPLLRLEPVGDQEAAEEAEAATPVELALPVAPSARDAHERAARGLQDLRSVLLGFDVDPHDEQRVLDDYLAARAELVAAGQRPLDGEIELLQVFADLSELSRNRPAGEEAKADTRVHSPREYFHTYLQSLDVERAGLSETFQQRLLRVLGHYGVEGADRTPELEEAVFRIFLAQQRAASDAAVVTTLLGHWLTEVPPPGETRTAAGLVLEHLVAATQLRFPVVCDLARTVVFHWFAQPMLRRNRAEVYSVVRGHLRHLDAHPDAHDRAERIAEMVGTAEPLVRLLGQRIGREGTDPAPLLEVLTRRYYGNRALDGVRTTRVAGSTAVVAEYQDEHPRVVATAVDFAALPEAVRAIGELAADGDLVADIYLTWADQPEDSDAMAAELGEVLGAQGLPGQVGRITTTVAGRSGAVMHHHFTFEPASEGVAEQRLIRGLHPLIAERLQLRRWRDFDLTRLPSADEEVYLFRSVARENPSDERFVAMAQVRDLTPLRDDEGRLVALPAAEGVLTGCLDAIRKVQARVPARQRSSTNRIVIYVWPPVELTSEELRALGRRVLPTTAGAGLEEVLFLGRRRDRETGELREVAVRVGYEAGSEPRMSVGEPPTERIEPLNSYRQKVLRAAKRGTVYPYELTGMLAGGQGTFVEHDLDADGVLVPVDRPKGQNSAAIVAGVVTTPTERHPEGVTRVVLLGDPTKSLGALSEPECSRVIAALDLAERMRVPLEWFALSAGARISMDSGTENMDWVAAALKRIVHFTQDGGEINVVVAGINVGAQPYWNAEATMLMHTKGILVMTPDSAMVLTGKQSLDFSGGVSADDNFGIGGYDRVMGPNGQAQYWAPNLAAAREVLMSHYDHTYVVPGEEAPRQAATTDPRDRDICDYPHEFAGSDFTTVGEIFSATANPDRKKSFDIRTVMRALADQDHPVLERWAGMADADTAAVQDVHLGGHPVCLLGIESRPVPRHGFPPTDGPDTYTAGTLFPRSSKKAARAINAASGNRPLVVLANLSGFDGSPESMRKLQLEYGAEIGRAIVNFRGPIVFCVISRYHGGAFVVFSKALNPNMTVLAVEGSYASVIGGAPAAAVVFSGEVNDRTAKDQRVRDLEARLAEAGDADRTALTLELAETRRAVHAEKLGEVAAEFDRVHSVQRAVEVGSVDAIVRADELRPQIIEAIEKGMLPQ
notes: full-length gene, N-terminal His6 tag, E. coli BL21λ(DE3) with pCY216 (biotin ligase)
- Km [1]: 168 ± 1 µM
- Vmax [1]: 0.00043 µmol/min
- kcat [1]: 0.143 ± 0.004 s⁻¹
- kcat/Km [1]: 850 ± 30 M⁻¹ s⁻¹
- Km [2]: 98 ± 1 µM
- Vmax [2]: 0.00016 µmol/min
- kcat [2]: 0.052 ± 0.002 s⁻¹
- kcat/Km [2]: 520 ± 40 M⁻¹ s⁻¹

B2: SACE_4237 multidomain acyl-CoA carboxylase (enzyme, Saccharopolyspora erythraea, UniProt A4FHI1 1-1827, looked up)
chain: MFSRVAIVNRGEAAMRLVHAVRELAAETGERIETVALHTDVDRTATFVREADLRYDLGPASARPYLDLGVLERALVESGADAAWVGWGFVAEDPAFAELCEKIGVTFIGPSAEAMRRLGDKIGAKLLAEEVGVPVAPWSRGEVSDLDGARRAADEIGYPLMLKATAGGGGRGIRVINSEQELTEAYERTRMEAERAFGNGAVFLERLVTGARHVEVQVIADGQGTAWALGVRDCSVQRRNQKIIEESASPVLTAEQSRELKAAAERLARAVEYRGAGTVEFLYHPGEELFAFLEVNTRLQVEHPITEATTGVDLVKAQLHVASGGRLEGEPPAELGHAVEARLNAEDPDRDFAPSPGRIVRLSLPAGPGIRVDTGVSEGDTIPADFDSMIAKIIAYGSDREQALGRLRRAMAQTTVIVAGGATNKSFVLDLLNRDEVVDGSADTGWIDRERAAGGLRSHQHSAIALAAAAVEAYEDAELAARQQFLSTAHGGRPQVRHETGRPLELKLRDESYRVLVARVGHQRYRIGIDTGSQQHTADVEIERFDSHTGQITVNGQRFRLVTDTHGPVHLVEVDGVTHRVSQDEGGVLRSPAPALVVATPVEIGEEVEAGAPVLVLESMKMETVLRAPFRARLRERMVAAGSQIETGAPLLRLEPVGDQEAAEEAEAATPVELALPVAPSARDAHERAARGLQDLRSVLLGFDVDPHDEQRVLDDYLAARAELVAAGQRPLDGEIELLQVFADLSELSRNRPAGEEAKADTRVHSPREYFHTYLQSLDVERAGLSETFQQRLLRVLGHYGVEGADRTPELEEAVFRIFLAQQRAASDAAVVTTLLGHWLTEVPPPGETRTAAGLVLEHLVAATQLRFPVVCDLARTVVFHWFAQPMLRRNRAEVYSVVRGHLRHLDAHPDAHDRAERIAEMVGTAEPLVRLLGQRIGREGTDPAPLLEVLTRRYYGNRALDGVRTTRVAGSTAVVAEYQDEHPRVVATAVDFAALPEAVRAIGELAADGDLVADIYLTWADQPEDSDAMAAELGEVLGAQGLPGQVGRITTTVAGRSGAVMHHHFTFEPASEGVAEQRLIRGLHPLIAERLQLRRWRDFDLTRLPSADEEVYLFRSVARENPSDERFVAMAQVRDLTPLRDDEGRLVALPAAEGVLTGCLDAIRKVQARVPARQRSSTNRIVIYVWPPVELTSEELRALGRRVLPTTAGAGLEEVLFLGRRRDRETGELREVAVRVGYEAGSEPRMSVGEPPTERIEPLNSYRQKVLRAAKRGTVYPYELTGMLAGGQGTFVEHDLDADGVLVPVDRPKGQNSAAIVAGVVTTPTERHPEGVTRVVLLGDPTKSLGALSEPECSRVIAALDLAERMRVPLEWFALSAGARISMDSGTENMDWVAAALKRIVHFTQDGGEINVVVAGINVGAQPYWNAEATMLMHTKGILVMTPDSAMVLTGKQSLDFSGGVSADDNFGIGGYDRVMGPNGQAQYWAPNLAAAREVLMSHYDHTYVVPGEEAPRQAATTDPRDRDICDYPHEFAGSDFTTVGEIFSATANPDRKKSFDIRTVMRALADQDHPVLERWAGMADADTAAVQDVHLGGHPVCLLGIESRPVPRHGFPPTDGPDTYTAGTLFPRSSKKAARAINAASGNRPLVVLANLSGFDGSPESMRKLQLEYGAEIGRAIVNFRGPIVFCVISRYHGGAFVVFSKALNPNMTVLAVEGSYASVIGGAPAAAVVFSGEVNDRTAKDQRVRDLEARLAEAGDADRTALTLELAETRRAVHAEKLGEVAAEFDRVHSVQRAVEVGSVDAIVRADELRPQIIEAIEKGMLPQ
modifications: biotinylated (co-expressed biotin ligase from pCY216 to improve biotinylation; residue not stated)
notes: SACE_4237, multidomain acyl-CoA carboxylase (BC, BCCP, central region, CT) of Saccharopolyspora erythraea NRRL23338, about 200 kDa; gene amplified from chromosomal DNA with an NdeI site at the translational start codon and a SpeI site downstream of the stop codon; Eluted from size exclusion as a dimer (peak 1, 404 kDa) and a monomer (peak 2, 186.9 kDa); The row is of the protomer with itself; …
- stoichiometry N [3]: 2
